This is an account of results in patent publication US20170233497A1.

Read-outs that look alike come from different tables or passages of the source.

In assay [1] the target is mouse FcRn (neonatal Fc receptor), biotinylated (mouse) (UniProt Q61559). Put plainly: FcRn ELISA at pH 6.0. (In an ELISA, binding on a coated surface is turned into a signal by an enzyme label.)
Assay [2] has as its target recombinant extracellular domain of EGFR (UniProt P00533). Description: EGFR-coat/anti-7D8-idiotype sandwich ELISA; mixture after 25 mM 2-MEA, 90 min, 37 °C; axis = total antibody of the mixture.
The target is the same in assay [3]. Described as above. This is another data set of the same source.

With “bispecific IgG1 generated from IgG1-2F8-ITL and IgG1-7D8-K409R (bispecific antibody)”, the fold higher binding efficiency to mouse FcRn compared to human FcRn in assay [1] came out at 3 fold.

Take “IgG1-2F8-F405L+IgG4-7D8-CPPC (bispecific antibody)”: in assay [2], the EC50 (read off the curve) (as a rule, the concentration at which the effect is half-maximal) was determined as 0.3 µg/mL.

“IgG4-2F8 x IgG4-7D8 (bispecific antibody)”: the concentration for a half-maximal effect (EC50 (read off the curve)) in assay [3] was 0.3 µg/mL; in assay [2], 0.4 µg/mL.

Regarding IgG1-2F8-ITL (antibody), in assay [1], the fold higher binding efficiency to mouse FcRn compared to human FcRn came out at 3 fold.

With “IgG4-2F8+IgG4-7D8 (deglyc) (bispecific antibody)”, the concentration for a half-maximal effect (EC50 (read off the curve)) in assay [3] was found to be 0.4 µg/mL.

Take “IgG4-7D8-CPPC x IgG4-2F8 (bispecific antibody)”: in assay [2], the EC50 (read off the curve) worked out at 0.3 µg/mL.

As for “IgG1-2F8-F405L+IgG4-7D8 (bispecific antibody)”, the concentration giving a half-maximal response (EC50 (read off the curve)) in assay [2] is 0.3 µg/mL.
